Two molecules from patent US20240124553A1 (WASHINGTON UNIVERSITY, published 2024) can be followed below.

What all share (assay): flow cytometry, transfected 293T cells
In assay [1] the target is T1, CHIKV E2-E1 envelope glycoproteins (strain S27), E2 mutant D132A (chikungunya virus strain S27, UniProt Q8JUX5 1-1248; Q8JUX5 810-1248).
T1 construct: whole, on cells; E2 domain A

Assay [2] addresses T2, CHIKV E2-E1 envelope glycoproteins (strain S27), E2 mutant F115A (chikungunya virus strain S27, UniProt Q8JUX5 1-1248; Q8JUX5 810-1248).
T2 construct: whole, on cells; E2 domain A

The target in assay [3] is T3, CHIKV E2-E1 envelope glycoproteins (strain S27), E2 mutant K66A (chikungunya virus strain S27, UniProt Q8JUX5 1-1248; Q8JUX5 810-1248).
T3 construct: whole, on cells; E2 domain A

The target in assay [4] is T4, CHIKV E2-E1 envelope glycoproteins (strain S27), E2 mutant R104A (chikungunya virus strain S27, UniProt Q8JUX5 1-1248; Q8JUX5 810-1248).
T4 construct: whole, on cells; E2 domain A

For assay [5], the target named is T5, CHIKV E2-E1 envelope glycoproteins (strain S27), E2 mutant R36A (chikungunya virus strain S27, UniProt Q8JUX5 1-1248; Q8JUX5 810-1248).
T5 construct: whole, on cells; E2 domain A

The target of assay [6] is T6, CHIKV E2-E1 envelope glycoproteins (strain S27), E2 mutant A76S (chikungunya virus strain S27, UniProt Q8JUX5 1-1248; Q8JUX5 810-1248).
T6 construct: whole, on cells; E2 domain A

The target of assay [7] is T7, CHIKV E2-6K-E1 envelope proteins (strain S27) with E2 I217A (Chikungunya virus strain S27, UniProt Q8JUX5 1-1248; Q8JUX5 810-1248).
T7 construct: whole, on cells

B1: Mxra8-Fc (mouse Mxra8 extracellular domain fused to mouse IgG2b Fc) (Fc fusion)
chain: SGPSGTAAASSSLVSESVVSLAAGTQAVLRCQSPRMVWTQDRLHDRQRVVHWDLSGGPGSQRRRLVDMYSAGEQRVYEPRDRDRLLLSPSAFHDGNFSLLIRAVDRGDEGVYTCNLHHHYCHLDESLAVRLEVTEDPLLSRAYWDGEKEVLVVAHGAPALMTCINRAHVWTDRHLEEAQQVVHWDRQLPGVSHDRADRLLDLYASGERRAYGPPFLRDRVSVNTNAFARGDFSLRIDELERADEGIYSCHLHHHYCGLHERRVFHLQVTEPAFEPPARASPGNGSGHSSAPSPDPTLTRGHSIINVIVPEDHTHPSGPISTINPCPPCKECHKCPAPNLEGGPSVFIFPPNIKDVLMISLTPKVTCVVVDVSEDDPDVQISWFVNNVEVHTAQTQTHREDYNSTIRVVSTLPIQHQDWMSGKEFKCKVNNKDLPSPIERTISKIKGLVRAPQVYILPPPAEQLSRKDVSLTCLVVGFNPGDISVEWTSNGHTEENYKDTAPVLDSDGSYFIYSKLNMKTSKWEKTDSFSCNVRHEGLKNYYLKKTISRSPGK
For the molecule B1, the “Binding Reactivity (% WT)” value in assay [1] was found to be 105 % WT; in assay [2], 3.3 % WT; in assay [3] it was 93.1 % WT; in assay [4], 49.9 % WT; in assay [5] it was 68.3 % WT; in assay [6], 85 % WT.

B2: Mxra8-Fc (mouse Mxra8 extracellular domain fused to mouse IgG2b Fc) (Fc fusion)
chain: B1 chain
Regarding B2, in assay [7], the “Binding Reactivity (% WT)” value came to 12.3 % WT.
